Source: patent US9657088B2, “Anti-HSV antibody” (priority 2009, dated 2017)

B1: h2c-V1: humanized mAb 2c variant, CDR grafting onto DP28/DPK13, no backmutations (antibody, V domains shown)
VH: QVTLKESGPALVKPTQTLTLTCTFSGFSLSTSGMSVGWIRQPPGKALEWLAHIWWNNDKYYKPALKSRLTISKDTSKNQVVLTMTNMDPVDTATYYCARIYYGYRPYAMDYWGQGTLVTVSS
VL: DIVMTQTPLSLPVTPGEPASISCRSSQSIVHSNGNTYLEWYLQKPGQSPQLLIYKVSNRFSGVPDRFSGSGSGTDFTLKISRVEAEDVGVYYCFQGSHVPWSFGQGTKVEIKR

How the values were obtained:
[1] = test system: patient derived HSV-1 isolate resistant towards Acyclovir, Foscarnet and Cidovovir; assay: Treatment of NOD/SCID mice infected with multi-resistant patient HSV-1 isolate; type: in vivo; settings: for protection against lethal encephalitis: 15 mg/kg i.v. at 24 h, 40 h and 56 h post infection
Source text: Mice receiving twice daily standard treatment with Acyclovir all died within 28 days.
Furthermore, the humanized mAb 2c-V1 also confers protection from viral dissemination and lethal encephalitis in the presence of an established peripheral HSV infection. […] In contrast, mice receiving Acyclovir all died (FIG. 12).

human DNA polymerase = settings: background statement; cited from earlier work
[2] = target: T1, glycoprotein B on surface of HSV-1 F infected Vero cells (Human herpesvirus 1, UniProt P06436); assay: Affinity constants (KD) by flow cytometry on HSV-1 F infected Vero cells; type: binding
T1 construct: expressing the gB-protein as membrane associated glycoprotein on the cell surface during the natural HSV replication cycle; endogenous in cells; host or cells: Vero cells infected with HSV-1 F (MOI 3); gB is made by the virus in the infected cell

[3] = test system: HSV-1 laboratory strains and clinical isolates; assay: Neutralization of HSV-1 laboratory strains and clinical isolates (FIG. 8); type: cell-based
Description: (§1) To determine the titer of mAb h2c-V1 for complete virus neutralization several antibody concentrations were incubated for 1 h at 37° C. with 100 TCID50 of HSV-1 or HSV-2 isolates and incubated for 3 days with Vero cells. MAb hu2c-V1 neutralizes HSV-1 laboratory strains HSV-1 F, HSV-1 324 hv, HSV-1 17 syn^+, HSV-1 TK^− completely at concentrations of 7.8-15.6 nM. HSV-1 clinical isolates are neutralized by mAb h2c-V1 similarly irrespective of their resistance profile. Furthermore, the same neutralization efficiency of mAb hu2c-V1 was shown for strain HSV-2 G and ACV-resistant HSV-2 isolates at concentrations of 31.3-62.5 nM.

[4] = test system: HSV-2 G and ACV-resistant HSV-2 isolates; assay: Neutralization of HSV-2 strain and isolates (FIG. 8); type: cell-based; settings: 100 TCID50, 3 days
Description: as §1

[5] = target: T2, gB present on the surface of HSV-1 infected Vero cells (Human herpesvirus 1, UniProt P06436); assay: Competition study with mAb 2c by flow cytometry; type: binding; settings: increasing concentrations, then 100 nM mAb 2c
T2 construct: endogenous in cells; host or cells: Vero cells infected with HSV-1 (3 moi, 20 h)

HSV-1 = assay: Plaque-reduction assay with or without human complement; type: cell-based; settings: 2 μg/ml, with or without 10% human complement
HSV-1 F [6] = assay: Cell-to-cell spread assay in Vero cell monolayers; type: cell-based; settings: 500 nM, 48 h
Description: Vero cells grown to confluency on glass cover slips in 24-weel tissue culture plates are infected for 4 h at 37° C. with a constant virus amount of 400 TCID50/well. One median tissue culture infective dose (1 TCID50) is the amount of a cytopathogenic agent, such as a virus, that will produce a cytopathic effect in 50% of the cell cultures inoculated. The virus inoculum is subsequently removed, the cells washed twice with PBS and further incubated for 2 days at 37° C. in 1 ml DMEM, 2% FCS, Pen/Strep containing an excess of either different anti-HSV antibodies or polyclonal anti-HSV control serum in order to prevent viral spreading via the supernatant Viral antigens of HSV-infected cells are detected with a fluorescence labelled polyclonal goat-anti-HSV-serum (BETHYL Labolatories, Montgomery, Tex. USA, Catalog No. A190-136F, Lot No. A190-136F-2).
Two days after infection spreading of the virus was detected with fluorescence labeled polyclonal goat-anti-HSV serum using a Leica DM IRE2 confocal microscope at 40-fold magnification.
For spreading within a host HSV uses two mechanisms: release of cell-free particles and direct, cell-to-cell spread. […] Viral antigens were detected by staining of HSV-1 infected cell monolayers with FITC-conjugated polyclonal goat-anti-HSV serum (BETHYL, Montgomery, Tex., USA) diluted 1:100 in blocking buffer. […]

HSV-1 F [7] = assay: Passive immunization of NOD/SCID mice 24 h before intravaginal HSV-1 challenge; type: in vivo; settings: 24 h prior to infection
Description: Mice were infected intravaginally with 1×10^6 TCID50/20 μl of the neurovirulent HSV-1 strain F. Infected mice with symptoms of weight loss, vulvitis/vaginitis or neurological diseases were killed, and their organs examined for infectious virus by titration on Vero cell monolayers as described previously. Non-infected mice were killed at day 30. Animals per group n=7.
Animals per group n=7 for PBS, n=9 all other groups.
(§2) Anesthetized female nonobese diabetic/severe combined immunodeficient (NOD-SCID) mice (NOD.CB17-Prkdc^scid/J, Charles River Laboratories, Research Models and Services, Sulzfeld, Germany), 6-8 weeks of age, were challenged intravaginally with 20 μl inoculum of 1×10^6 TCID50 HSV-1 F per mouse. Skin glue (Epiglu, Meyer-Haake Medical Innovations, Wehrheim, Germany) was applied onto the vulva to prevent discharge of the virus inoculum. […] Mice were examined daily after viral inoculation for loss of weight, vulvitis/vaginitis (redness, mucopurulent discharge and signs of inflammation) and neurological disease. Mice displaying any of theses symptoms were sacrificed immediately. […] Mice were assessed for infection by determination of virus titers from vaginal irrigations obtained on days 1, 2, 4, 6 and 8 after infection and at the time of death using the endpoint dilution assay on Vero cells. Viral loads in organs (spleen, adrenal gland, lung heart, liver, kidney, spinal cord, and brain) of sacrificed mice were determined after homogenization of organs by titration on Vero cell monolayers as described elsewhere (41). Each test and control group contained 9-10 animals with detectable HSV-1 infection.
Natural killer (NK) cells accumulating at the site of HSV-2 infection in humans (28) are the early source of interferon-γ (45), which plays an essential role for the control of HSV infection (2, 45, 62).

HSV-1 F [8] = assay: Post-exposure treatment of NOD/SCID mice with established HSV-1 infection; type: in vivo; settings: 15 mg/kg i.v. at 24 h, 40 h and 56 h post infection
Description: Infected animals per group n=7.
Vaginal virus titers of antibody or control treated mice were determined from vaginal irrigations cultured on Vero cell monolayers. Error bars indicate standard deviation.
as §2

Row | Molecule | outcome of infection ([1]; standard treatment with Acyclovir) | time by which all mice died ([1]; twice daily standard treatment) | factor by which human DNA polymerase is less susceptible than viral DNA polymerase (human DNA polymerase) | affinity in comparison to mAb 2c [2] | concentration for complete neutralization ([3]; HSV-1 F, HSV-1 324 hv, HSV-1 17 syn+, HSV-1 TK−, 100 TCID50, 3 days) | neutralization of patient isolates clinically resistant to ACV, ACV and PFA, or ACV, PFA and CDV ([3]; compared with non-resistant laboratory strains) | concentration for complete neutralization [4] | competition with parental mAb 2c for binding [5] | complement dependence of HSV neutralization (HSV-1) | inhibition of cell-to-cell spread (HSV-1 F [6]) | protection against lethal encephalitis (HSV-1 F [7]; 15 mg/kg i.v.) | survival (HSV-1 F [7]; single i.v. dose of 5 mg/kg) | protection from lethal outcome of established infection (HSV-1 F [8]) | protection against lethal encephalitis ([1]; listed as mAb 2c-V1) | protection against lethal encephalitis ([1]; listed as mAb hu2c-V1)
1 | Nc1nc(=O)c2ncn(COCCO)c2[nH]1 [Acyclovir, 2-Amino-9-(2-hydroxyethoxymethyl)-3H-purin-6-on, reference compound] | all died | ≤ 28 days | 30-50 |  |  |  |  |  |  |  |  |  |  |  | 
2 | B1 |  |  |  | affinity comparable to the murine mAb 2c | 7.8 to 15.6 nM | with the same efficiency as non-resistant laboratory strains or clinical isolates with unknown resistance | 31.3 to 62.5 nM | compete with the parental mAb 2c for binding to gB | neutralize HSV complement-independent | as efficient as the parenteral mAb 2c | fully protected against lethal encephalitis | prolongs the survival | completely protected from the lethal outcome of infection | prevented lethal encephalitis | significantly protected against lethal encephalitis
